From patent publication WO2021028359A1 (dated 2021)

Target: HLA-A2 on HLA-A2 positive peripheral blood mononuclear cells (human)
Experiment: cell-based or functional assay

B1: HLA-A2 CAR (anti-HLA-A2 chimeric antigen receptor: CD8 leader, scFv directed against HLA-A2, CD8 alpha linker and transmembrane domain, CD28 activation domain, … (receptor)
chain: SQVQLQQSGPELVKPGASVKMSCKASGYTFTSYHIQWVKQRPGQGLEWIGWIYPGDGSTQYNEKFKGKTTLTADKSSSTAYMLLSSLTSEDSAIYFCAREGTYYAMDYWGQGTSVTVSSGGGGSGGGGSGGGGSDVLMTQTPLSLPVSLGDQVSISCRSSQSIVHSNGNTYLEWYLQKPGQSPKLLIYKVSNRFSGVPDRFSGSGSGTDFTLKISRVEAEDLGVYYCFQGSHVPRTFGGGTKLEIKRTTTPAPRPPTPAPTIASQPLSLRPEACRPAAGGAVHTRGLDFACDIYIWAPLAGTCGVLLLSLVITLYCRSKRSRLLHSDYMNMTPRRPGPTRKHYQPYAPPRDFAAYRSRVKFSRSADAPAYQQGQNQLYNELNLGRREEYDVLDKRRGRDPEMGGKPRRKNPQEGLYNELQKDKMAEAYSEIGMKGERRRGKGHDGLYQGLSTATKDTYDALHMQALPPR
CD69 cell surface expression on Tregs transduced with TX135 (PGK promoter), 24 h co-incubation, flow cytometry: 3.7 fold
CD69 cell surface expression on Tregs transduced with pTX137 (EF1a promoter), 24 h co-incubation, flow cytometry: < 2 fold
CD69 cell surface expression on Tregs transduced with pTX138 (EF1a promoter + WpreMut6), 24 h co-incubation, flow cytometry: < 2 fold
